Measurements taken from publication PMC13096800.

Molecular target: apoptosis-inducing factor, mitochondrial (AIFM1) (human) (UniProt O95831)
Experiment: cross-linking; sulfo-SDA (0.5 mM) photo-cross-linking of AIFM1 at 1 mg/ml, pre-incubated on ice with 1 mM NADH for 1 h to induce dimerization; 10 mM HEPES-NaOH pH 7.8, 150 mM NaCl, 4 mM MgCl2, 0.5 mM TCEP; UVEN UV activation 0-180 s; SDS-PAGE, and LC-MS/MS of the 32-s sample

stoichiometry N: 2
Substance: apoptosis-inducing factor, mitochondrial (AIFM1) (from UniProt O95831 103-613) (natural protein)
